The values that follow come from patent EP4137518A1 (Inhibrx, Inc., dated 2023).

For experiment [1], the target named is T1, human CD47, cell surface (Raji, CCRF-CEM, Daudi cells) (human, UniProt Q08722 19-323).
T1 construct: Endogenous CD47 on human cell lines; also called cell surface CD47; endogenous (cell surface) form of CD47
The experiment can be described thus: summary of the binding and blocking assays.

Experiment [2] concerns the target T1, human CD47, cell surface (Raji, …). The experiment can be described thus: flow cytometry on Raji cells; apparent KD from non-linear fit of median fluorescence intensities. In general terms: A flow cytometer gives signals particle by particle.

B1: 9E4 antibody (murine) (antibody, mouse IgG1, V domains shown)
VH: EVQLRQSGPELVKPGASVKISCKASGYSFTDYYMYWVKQSRVRSLAWIGRINPYTGATGYDQNFKDKASLIVDKSSSTAYMELRSLTSEDSAVYYCARGRNRYDGWFAYWGQGTLVTV
VL: EIQMTQTTSSLSASLGDRVTISCRASQDISNYLNWYQQKPDGTVKLLIYYTSRLHSGVPSRFSGSGSGTDYSLTISNLDQEDIATYFCQQGNALPPTFGGGTNLEIK
B1: the binding result in experiment [1] is listed as “binds”.

B2: B6H12 (antibody, V domains shown)
VH: EVQLVESGGDLVKPGGSLKLSCAASGFTFSGYGMSWVRQTPDKRLEWVATITSGGTYTYYPDSVKGRFTISRDNAKNTLYLQIDSLKSEDTAIYFCARSLAGNAMDYWGQGTSVTVSS
VL: DIVMTQSPATLSVTPGDRVSLSCRASQTISDYLHWYQQKSHESPRLLIKFASQSISGIPSRFSGSGSGSDFTLSINSVEPEDVGVYYCQNGHGFPRTFGGGTKLEIK
Turning to B2, in experiment [2], the Kd stood at 3.79 nM.
